For 48 variants, abundance fitness results are on record in the Human Domainome abundance scans (Beltran et al. 2025).

To fix the notation:
B1: RAS guanyl-releasing protein 1, residues 539 to 593; numbered along this chain, O95267 (parent)
chain: GFPHNFQETTYLKPTFCDNCAGFLWGVIKQGYRCKDCGMNCHKQCKDLVVFECKK

± gives the uncertainty stated by the source.

This series covers variants of B1. Description: abundance fitness (aPCA) (normalised: wild type 0, dead -1); higher = more abundant; growth selection in yeast, the domain comes from the species named. As to conditions: Homo sapiens.
Consider GFPHNFQETTYTKPTFCDNCAGFLWGVIKQGYRCKDCGMNCHKQCKDLVVFECKK, for which the abundance fitness was -0.25 ± 0.093.

In the case of GFPHNFQETTYNKPTFCDNCAGFLWGVIKQGYRCKDCGMNCHKQCKDLVVFECKK, the abundance fitness is -0.768 ± 0.4.

Turning to GFPHNFQETTYDKPTFCDNCAGFLWGVIKQGYRCKDCGMNCHKQCKDLVVFECKK, the abundance fitness is -0.424 ± 0.17.

Take GFPHNFQETTYPKPTFCDNCAGFLWGVIKQGYRCKDCGMNCHKQCKDLVVFECKK: the abundance fitness was -0.149 ± 0.09.

For the variant GFPHNFQETTYFKPTFCDNCAGFLWGVIKQGYRCKDCGMNCHKQCKDLVVFECKK, the abundance fitness was -0.076 ± 0.09.

For GFPHNFQETTYEKPTFCDNCAGFLWGVIKQGYRCKDCGMNCHKQCKDLVVFECKK, the abundance fitness is -0.19 ± 0.097.

As to GFPHNFQETTYVKPTFCDNCAGFLWGVIKQGYRCKDCGMNCHKQCKDLVVFECKK, the abundance fitness is -0.39 ± 0.097.

GFPHNFQETTYCKPTFCDNCAGFLWGVIKQGYRCKDCGMNCHKQCKDLVVFECKK: the abundance fitness was -0.183 ± 0.11.

Regarding GFPHNFQETTYGKPTFCDNCAGFLWGVIKQGYRCKDCGMNCHKQCKDLVVFECKK, the abundance fitness was -0.038 ± 0.08.

GFPHNFQETTYMKPTFCDNCAGFLWGVIKQGYRCKDCGMNCHKQCKDLVVFECKK: the abundance fitness came out at 0.319 ± 0.12.

On to GFPHNFQETTYRKPTFCDNCAGFLWGVIKQGYRCKDCGMNCHKQCKDLVVFECKK, for which the abundance fitness is -0.178 ± 0.06.

Take GFPHNFQETTYYKPTFCDNCAGFLWGVIKQGYRCKDCGMNCHKQCKDLVVFECKK: the abundance fitness is -0.145 ± 0.12.

In the case of GFPHNFQETTYQKPTFCDNCAGFLWGVIKQGYRCKDCGMNCHKQCKDLVVFECKK, the abundance fitness was -0.337 ± 0.19.

Turning to GFPHNFQETTYSKPTFCDNCAGFLWGVIKQGYRCKDCGMNCHKQCKDLVVFECKK, the abundance fitness is -0.123 ± 0.084.

GFPHNFQETTYWKPTFCDNCAGFLWGVIKQGYRCKDCGMNCHKQCKDLVVFECKK: the abundance fitness was -0.298 ± 0.13.

GFPHNFQETTYIKPTFCDNCAGFLWGVIKQGYRCKDCGMNCHKQCKDLVVFECKK: the abundance fitness was -0.63 ± 0.23.

With GFPHNFQETTLLKPTFCDNCAGFLWGVIKQGYRCKDCGMNCHKQCKDLVVFECKK, the abundance fitness is -0.031 ± 0.071.

For the variant GFPHNFQETTKLKPTFCDNCAGFLWGVIKQGYRCKDCGMNCHKQCKDLVVFECKK, the abundance fitness is -0.036 ± 0.12.

As to GFPHNFQETTPLKPTFCDNCAGFLWGVIKQGYRCKDCGMNCHKQCKDLVVFECKK, the abundance fitness is -0.742 ± 0.2.

As to GFPHNFQETTDLKPTFCDNCAGFLWGVIKQGYRCKDCGMNCHKQCKDLVVFECKK, the abundance fitness was -0.832 ± 0.11.

For GFPHNFQETTELKPTFCDNCAGFLWGVIKQGYRCKDCGMNCHKQCKDLVVFECKK, the abundance fitness is -0.256 ± 0.12.

For GFPHNFQETTCLKPTFCDNCAGFLWGVIKQGYRCKDCGMNCHKQCKDLVVFECKK, the abundance fitness was -0.151 ± 0.074.

On to GFPHNFQETTNLKPTFCDNCAGFLWGVIKQGYRCKDCGMNCHKQCKDLVVFECKK, for which the abundance fitness is -0.225 ± 0.073.

Turning to GFPHNFQETTILKPTFCDNCAGFLWGVIKQGYRCKDCGMNCHKQCKDLVVFECKK, the abundance fitness is -0.301 ± 0.097.

With GFPHNFQETTRLKPTFCDNCAGFLWGVIKQGYRCKDCGMNCHKQCKDLVVFECKK, the abundance fitness is -0.214 ± 0.055.

Turning to GFPHNFQETTVLKPTFCDNCAGFLWGVIKQGYRCKDCGMNCHKQCKDLVVFECKK, the abundance fitness is -0.25 ± 0.079.

Take GFPHNFQETTFLKPTFCDNCAGFLWGVIKQGYRCKDCGMNCHKQCKDLVVFECKK: the abundance fitness was found to be 0.227 ± 0.11.

As for GFPHNFQETTTLKPTFCDNCAGFLWGVIKQGYRCKDCGMNCHKQCKDLVVFECKK, the abundance fitness was -0.318 ± 0.15.

GFPHNFQETTSLKPTFCDNCAGFLWGVIKQGYRCKDCGMNCHKQCKDLVVFECKK: the abundance fitness turned out to be 0.028 ± 0.083.

In the case of GFPHNFQETTQLKPTFCDNCAGFLWGVIKQGYRCKDCGMNCHKQCKDLVVFECKK, the abundance fitness was -0.458 ± 0.41.

Consider GFPHNFQETTHLKPTFCDNCAGFLWGVIKQGYRCKDCGMNCHKQCKDLVVFECKK, for which the abundance fitness was 0 ± 0.18.

With GFPHNFQETTWLKPTFCDNCAGFLWGVIKQGYRCKDCGMNCHKQCKDLVVFECKK, the abundance fitness is -0.17 ± 0.14.

As to GFPHNFQETTYLNPTFCDNCAGFLWGVIKQGYRCKDCGMNCHKQCKDLVVFECKK, the abundance fitness is -0.336 ± 0.16.

Turning to GFPHNFQETTYLMPTFCDNCAGFLWGVIKQGYRCKDCGMNCHKQCKDLVVFECKK, the abundance fitness worked out at 0.04 ± 0.1.

Consider GFPHNFQETTYLLPTFCDNCAGFLWGVIKQGYRCKDCGMNCHKQCKDLVVFECKK, for which the abundance fitness was -0.028 ± 0.067.

As to GFPHNFQETTYLTPTFCDNCAGFLWGVIKQGYRCKDCGMNCHKQCKDLVVFECKK, the abundance fitness is -0.105 ± 0.1.

Take GFPHNFQETTYLCPTFCDNCAGFLWGVIKQGYRCKDCGMNCHKQCKDLVVFECKK: the abundance fitness was -0.153 ± 0.062.

Regarding GFPHNFQETTYLAPTFCDNCAGFLWGVIKQGYRCKDCGMNCHKQCKDLVVFECKK, the abundance fitness is -0.223 ± 0.078.

On to GFPHNFQETTYLDPTFCDNCAGFLWGVIKQGYRCKDCGMNCHKQCKDLVVFECKK, for which the abundance fitness was -0.603 ± 0.26.

Consider GFPHNFQETTYLFPTFCDNCAGFLWGVIKQGYRCKDCGMNCHKQCKDLVVFECKK, for which the abundance fitness was -0.167 ± 0.12.

As for GFPHNFQETTYLSPTFCDNCAGFLWGVIKQGYRCKDCGMNCHKQCKDLVVFECKK, the abundance fitness was -0.116 ± 0.054.

As for GFPHNFQETTYLGPTFCDNCAGFLWGVIKQGYRCKDCGMNCHKQCKDLVVFECKK, the abundance fitness is -0.333 ± 0.082.

As for GFPHNFQETTYLIPTFCDNCAGFLWGVIKQGYRCKDCGMNCHKQCKDLVVFECKK, the abundance fitness was -0.257 ± 0.17.

Consider GFPHNFQETTYLHPTFCDNCAGFLWGVIKQGYRCKDCGMNCHKQCKDLVVFECKK, for which the abundance fitness came out at 0.015 ± 0.087.

As to GFPHNFQETTYLPPTFCDNCAGFLWGVIKQGYRCKDCGMNCHKQCKDLVVFECKK, the abundance fitness is -0.507 ± 0.072.

As for GFPHNFQETTYLQPTFCDNCAGFLWGVIKQGYRCKDCGMNCHKQCKDLVVFECKK, the abundance fitness is -0.247 ± 0.33.

Take GFPHNFQETTYLEPTFCDNCAGFLWGVIKQGYRCKDCGMNCHKQCKDLVVFECKK: the abundance fitness was -0.565 ± 0.16.

As to GFPHNFQETTYLRPTFCDNCAGFLWGVIKQGYRCKDCGMNCHKQCKDLVVFECKK, the abundance fitness was -0.231 ± 0.086.
